The data set concerns the molecule itself. Put plainly: AUC.

B1: recombinant human mitochondrial single-stranded DNA binding protein, mature form (natural protein, UniProt Q04837 17-148, looked up)
chain: ESETTTSLVLERSLNRVHLLGRVGQDPVLRQVEGKNPVTIFSLATNEMWRSGDSEVYQLGDVSQKTTWHRISVFRPGLRDVAYQYVKKGSRIYLEGKIDYGEYMDKNNVRRQATTIIADNIIFLSDQTKEKE
On to B1, for which the “stoichiometry N” value came to 4.

The values above are taken from article PMC3953565 (Methods in molecular biology (Clifton, N.J.), 2009).
